Patent US20240239915A1

How the values were obtained:
Assay in all cases: SPR (Biacore T200); receptor immobilized directly on CM5 chip, antibody as analyte at 4.7 µM
[1] = molecular target: Recombinant Human Fc gamma RIIA/CD32a (R167) Protein (R&D Systems), His-tagged (human) (UniProt P12318)
[2] = molecular target: Recombinant Human Fc gamma RIIIA/CD16a protein (R&D Systems), His-tagged (human) (UniProt P08637)
[3] = molecular target: Recombinant Human Fc gamma RIIB/C (CD32b/c) Protein (R&D Systems), His-tagged (human) (UniProt P31994)
[4] = molecular target: Recombinant Human Fc gamma RIIIB/CD16b Protein (R&D Systems), His-tagged (human) (UniProt O75015)
Sequence of Recombinant Human Fc gamma RIIIB/CD16b Protein (R&D Systems), His-tagged (human) (O75015 other isoform, or with tags, fused parts or gaps): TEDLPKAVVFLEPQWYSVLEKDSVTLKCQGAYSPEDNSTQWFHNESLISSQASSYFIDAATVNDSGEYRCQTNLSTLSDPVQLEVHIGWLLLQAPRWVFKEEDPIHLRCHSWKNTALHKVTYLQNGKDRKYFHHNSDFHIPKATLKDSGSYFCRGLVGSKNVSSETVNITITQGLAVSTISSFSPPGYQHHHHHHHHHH

Sequence of Recombinant Human Fc gamma RIIA/CD32a (R167) Protein (R&D Systems), His-tagged (human) (P12318 other isoform, or with tags, fused parts or gaps): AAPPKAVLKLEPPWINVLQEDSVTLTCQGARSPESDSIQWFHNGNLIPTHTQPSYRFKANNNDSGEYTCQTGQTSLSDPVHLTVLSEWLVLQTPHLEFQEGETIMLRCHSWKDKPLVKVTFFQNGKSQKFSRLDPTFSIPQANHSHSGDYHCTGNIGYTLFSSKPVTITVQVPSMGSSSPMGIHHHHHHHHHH
Sequence of Recombinant Human Fc gamma RIIB/C (CD32b/c) Protein (R&D Systems), His-tagged (human) (P31994 other isoform, or with tags, fused parts or gaps): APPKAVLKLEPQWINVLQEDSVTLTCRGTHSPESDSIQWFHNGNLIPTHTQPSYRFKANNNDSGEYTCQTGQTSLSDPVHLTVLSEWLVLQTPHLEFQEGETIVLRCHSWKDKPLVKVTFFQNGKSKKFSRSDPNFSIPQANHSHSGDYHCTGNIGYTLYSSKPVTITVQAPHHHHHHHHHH
Sequence of Recombinant Human Fc gamma RIIIA/CD16a protein (R&D Systems), His-tagged (human) (P08637 other isoform, or with tags, fused parts or gaps): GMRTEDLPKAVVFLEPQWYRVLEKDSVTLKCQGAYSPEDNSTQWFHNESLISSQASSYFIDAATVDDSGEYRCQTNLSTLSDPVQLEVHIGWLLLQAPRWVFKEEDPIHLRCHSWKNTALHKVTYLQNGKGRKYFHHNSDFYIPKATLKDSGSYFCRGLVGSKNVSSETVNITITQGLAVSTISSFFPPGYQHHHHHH

binding response (RU) [1]	binding response (RU) [2]	binding response (RU) [3]	binding response (RU) [4]	Substance
8.3 RU				LALA-DG variant of the anti-CD70 antibody vorsetuzumab (IgG1)
64 RU	100 RU	18 RU	4.5 RU	LALA variant of the anti-CD70 antibody vorsetuzumab (IgG1)
